Results on 94 variants are retold here after the supplement of paper PMC10567573.

The labels stand for the following.
B1: PDLIM4 (parent)
chain: FLDERLYCESHAKARVKPPEGYDV
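Note: lentivirally expressed fusions sorted by FACS into six bins by GFP to DsRed ratio, PSI derived from sequencing read proportions per bin multiplied by bin number.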

The variants in this data set derive from B1. As to the kind of experiment: protein stability index of a GFP-peptide fusion (GPS, HEK-293T) (PSI 1-6); higher = more stable. The conditions noted are these: c terminus: a fixed tail appended.
With FLDERLYCESQAKARVKPPEGYDV [H11Q], the protein stability index amounted to 1.34.

In the case of FLDERLYCESAAKARVKPPEGYDV [H11A], the protein stability index was 1.85.

For FLDERLYCESRAKARVKPPEGYDV [H11R], the protein stability index was 1.79.

Consider FLDERLYCESDAKARVKPPEGYDV [H11D], for which the protein stability index turned out to be 2.39.

Consider FLDERLYCESFAKARVKPPEGYDV [H11F], for which the protein stability index came to 1.48.

On to FLDERLYCESIAKARVKPPEGYDV [H11I], for which the protein stability index was 2.19.

With FLDERLYCESVAKARVKPPEGYDV [H11V], the protein stability index worked out at 1.72.

In the case of FLDERLYCESTAKARVKPPEGYDV [H11T], the protein stability index worked out at 1.99.

As to FLDERLYCESEAKARVKPPEGYDV [H11E], the protein stability index was found to be 1.34.

Regarding FLDERLYCESMAKARVKPPEGYDV [H11M], the protein stability index amounted to 2.23.

FLDERLYCESSAKARVKPPEGYDV [H11S]: the protein stability index came to 1.98.

In the case of FLDERLYCTSHAKARVKPPEGYDV [E9T], the protein stability index was 1.31.

For FLDERLYCASHAKARVKPPEGYDV [E9A], the protein stability index stood at 1.57.

For the variant FLDERLYCLSHAKARVKPPEGYDV [E9L], the protein stability index was 2.34.

Turning to FLDERLYCDSHAKARVKPPEGYDV [E9D], the protein stability index was 1.8.

In the case of FLDERLYCHSHAKARVKPPEGYDV [E9H], the protein stability index worked out at 2.13.

Consider FLDERLYCKSHAKARVKPPEGYDV [E9K], for which the protein stability index was 1.42.

For the variant FLDERLYCGSHAKARVKPPEGYDV [E9G], the protein stability index worked out at 1.74.

For FLDERLYCWSHAKARVKPPEGYDV [E9W], the protein stability index worked out at 1.22.

FLDERLYCQSHAKARVKPPEGYDV [E9Q]: the protein stability index was 1.44.

With FLDERLYCYSHAKARVKPPEGYDV [E9Y], the protein stability index was 2.13.

For FLDERLYCVSHAKARVKPPEGYDV [E9V], the protein stability index amounted to 1.83.

With FLDERLYCFSHAKARVKPPEGYDV [E9F], the protein stability index amounted to 1.49.

For the variant FLDERLYCMSHAKARVKPPEGYDV [E9M], the protein stability index stood at 2.41.

For FLDERLYCNSHAKARVKPPEGYDV [E9N], the protein stability index came to 2.58.

For the variant FLDERLYCSSHAKARVKPPEGYDV [E9S], the protein stability index was determined as 1.97.

Turning to FLDERLYCESHIKARVKPPEGYDV [A12I], the protein stability index is 1.6.

Consider FLDERLYCESHLKARVKPPEGYDV [A12L], for which the protein stability index was 1.28.

For the variant FLDERLYCESHEKARVKPPEGYDV [A12E], the protein stability index was determined as 1.47.

For FLDERLYCESHGKARVKPPEGYDV [A12G], the protein stability index came to 2.68.

As for FLDERLYCESHQKARVKPPEGYDV [A12Q], the protein stability index came out at 1.37.

For FLDERLYCESHSKARVKPPEGYDV [A12S], the protein stability index was 1.42.

Consider FLDERLYCESHCKARVKPPEGYDV [A12C], for which the protein stability index stood at 1.23.

With FLDERLYCESHTKARVKPPEGYDV [A12T], the protein stability index was 2.04.

On to FLDERLYCESHFKARVKPPEGYDV [A12F], for which the protein stability index is 3.29.

As for FLDERLYCESHRKARVKPPEGYDV [A12R], the protein stability index was 1.82.

With FLDERLYCESHDKARVKPPEGYDV [A12D], the protein stability index was found to be 2.48.

FLDERLYCESHNKARVKPPEGYDV [A12N]: the protein stability index turned out to be 1.42.

Consider FLDERLYCESHHKARVKPPEGYDV [A12H], for which the protein stability index was found to be 1.77.

FLDERLYCESHYKARVKPPEGYDV [A12Y]: the protein stability index was 1.77.

Turning to FLDERLYCESHMKARVKPPEGYDV [A12M], the protein stability index turned out to be 1.53.

Regarding FLDERMYCESHAKARVKPPEGYDV [L6M], the protein stability index came to 2.87.

As to FLDERRYCESHAKARVKPPEGYDV [L6R], the protein stability index was 1.45.

As for FLDERTYCESHAKARVKPPEGYDV [L6T], the protein stability index is 2.55.

FLDERPYCESHAKARVKPPEGYDV [L6P]: the protein stability index was 1.7.

As to FLDERHYCESHAKARVKPPEGYDV [L6H], the protein stability index was 1.72.

Take FLDERNYCESHAKARVKPPEGYDV [L6N]: the protein stability index came out at 3.08.

Turning to FLDERFYCESHAKARVKPPEGYDV [L6F], the protein stability index was found to be 3.03.

For FLDERGYCESHAKARVKPPEGYDV [L6G], the protein stability index amounted to 3.42.

On to FLDERIYCESHAKARVKPPEGYDV [L6I], for which the protein stability index was 1.97.

With FLDERSYCESHAKARVKPPEGYDV [L6S], the protein stability index came out at 2.47.

FLDERKYCESHAKARVKPPEGYDV [L6K]: the protein stability index came to 2.09.

On to FLDERVYCESHAKARVKPPEGYDV [L6V], for which the protein stability index was found to be 1.59.

Consider FLDERQYCESHAKARVKPPEGYDV [L6Q], for which the protein stability index is 2.5.

Regarding FLDEREYCESHAKARVKPPEGYDV [L6E], the protein stability index worked out at 3.09.

Turning to FLDERDYCESHAKARVKPPEGYDV [L6D], the protein stability index came to 4.54.

For FLDERLYCESHAKYRVKPPEGYDV [A14Y], the protein stability index worked out at 2.23.

Regarding FLDERLYCESHAKERVKPPEGYDV [A14E], the protein stability index is 1.31.

Regarding FLDERLYCESHAKNRVKPPEGYDV [A14N], the protein stability index came to 1.39.

FLDERLYCESHAKGRVKPPEGYDV [A14G]: the protein stability index was 2.7.

As for FLDERLYCESHAKLRVKPPEGYDV [A14L], the protein stability index was found to be 1.75.

FLDERLYCESHAKHRVKPPEGYDV [A14H]: the protein stability index amounted to 2.56.

For FLDERLYCESHAKDRVKPPEGYDV [A14D], the protein stability index was determined as 1.36.

For the variant FLDERLYCESHAKKRVKPPEGYDV [A14K], the protein stability index came out at 1.07.

As to FLDERLYCESHAKSRVKPPEGYDV [A14S], the protein stability index came to 2.01.

Take FLDERLYCESHAKRRVKPPEGYDV [A14R]: the protein stability index was 2.57.

For FLDERLYCESHAKIRVKPPEGYDV [A14I], the protein stability index is 2.02.

Regarding FLDERLYCESHAKMRVKPPEGYDV [A14M], the protein stability index was determined as 1.76.

As for FLDERLYCESHAKQRVKPPEGYDV [A14Q], the protein stability index was found to be 2.29.

FLDERLYCESHAKFRVKPPEGYDV [A14F]: the protein stability index amounted to 1.65.

FLDEVLYCESHAKARVKPPEGYDV [R5V]: the protein stability index amounted to 2.35.

On to FLDEYLYCESHAKARVKPPEGYDV [R5Y], for which the protein stability index worked out at 1.42.

Turning to FLDESLYCESHAKARVKPPEGYDV [R5S], the protein stability index was 2.37.

With FLDETLYCESHAKARVKPPEGYDV [R5T], the protein stability index amounted to 1.3.

Consider FLDEWLYCESHAKARVKPPEGYDV [R5W], for which the protein stability index was found to be 3.09.

Regarding FLDEPLYCESHAKARVKPPEGYDV [R5P], the protein stability index stood at 2.98.

For the variant FLDERLYGESHAKARVKPPEGYDV [C8G], the protein stability index turned out to be 3.41.

With FLDERLYSESHAKARVKPPEGYDV [C8S], the protein stability index came to 2.39.

For the variant FLDERLYAESHAKARVKPPEGYDV [C8A], the protein stability index amounted to 1.53.

For the variant FLDERLYVESHAKARVKPPEGYDV [C8V], the protein stability index was 2.28.

As to FLDERLYFESHAKARVKPPEGYDV [C8F], the protein stability index worked out at 2.3.

For the variant FLDERLYYESHAKARVKPPEGYDV [C8Y], the protein stability index is 2.17.

For the variant FLDERLYQESHAKARVKPPEGYDV [C8Q], the protein stability index was 2.44.

On to FLDERLYRESHAKARVKPPEGYDV [C8R], for which the protein stability index turned out to be 1.81.

FLDERLYHESHAKARVKPPEGYDV [C8H]: the protein stability index was 2.71.

As to FLDERLYDESHAKARVKPPEGYDV [C8D], the protein stability index was found to be 3.78.

For FLDERLYTESHAKARVKPPEGYDV [C8T], the protein stability index came to 2.62.

With FLDERLYLESHAKARVKPPEGYDV [C8L], the protein stability index worked out at 2.26.

FLDERLYEESHAKARVKPPEGYDV [C8E]: the protein stability index turned out to be 3.52.

For the variant FLDERLYWESHAKARVKPPEGYDV [C8W], the protein stability index was determined as 2.14.

Regarding FLDERLYMESHAKARVKPPEGYDV [C8M], the protein stability index was determined as 1.64.

Regarding FLDERLYNESHAKARVKPPEGYDV [C8N], the protein stability index was 2.59.

For the variant FLDERLYKESHAKARVKPPEGYDV [C8K], the protein stability index was 1.58.

Regarding FLDERLYIESHAKARVKPPEGYDV [C8I], the protein stability index was found to be 1.41.
